Assays:
[1] = target: SARS-CoV-2 receptor binding domain (RBD), as crystallised (SARS-CoV-2, UniProt P0DTC2); assay: crystal structure
[2] = target: SARS-CoV-2 RBD, as used in Octet epitope binning and as SPR analyte (SARS-CoV-2, UniProt P0DTC2); assay: BLI

Binder | binding result [1] | binding result [2]
ION_300 Fab (Fab, V domains shown) VH: QVQLVQSGAEVKKPGESLKISCKGSGYSFTSYWIGWVRQMPGKGLEWMGIIYPGDSDTRYSPSFQGQVTISADKSISTAYLQWSSLKASDTAMYYCARHPSPYYYGSGSYSGGFDYWGQGTLVTVSS VL: DIVMTQSPGTLSLSPGERATLSCRASQSVSSSYLAWYQQKPGQAPRLLIYGASTRATGIPARFSGSGSGTEFTLTISSLQSEDFAVYYCQQYDNWPLMHTFGQGTKLEIK | binds | –
ION_360 Fab (Fab, V domains shown) VH: EVQLVQSGGGLVKPGGSLRLSCAASGITVSSNYMSWVRQAPGKGLEWVSVIYSGGSTYYADSVKGRFTISRDNSKNTLYLQMNSLRAEDTAVYYCARGEGGSIVGVTSDYWGQGTLVTVSS VL: DIQMTQSPSSLSASVGDRVTITCRASQSISRYLNWYQQKPGKAPKLLIYAASSLQSGVPSRFSGSGSETEFTLTISSLHPDDFATYYCQQSYSTLPYTFGQGTKVEIK | binds | –
ION_300 IgG1 (antibody, V domains shown) VH: QVQLVQSGAEVKKPGESLKISCKGSGYSFTSYWIGWVRQMPGKGLEWMGIIYPGDSDTRYSPSFQGQVTISADKSISTAYLQWSSLKASDTAMYYCARHPSPYYYGSGSYSGGFDYWGQGTLVTVSS VL: DIVMTQSPGTLSLSPGERATLSCRASQSVSSSYLAWYQQKPGQAPRLLIYGASTRATGIPARFSGSGSGTEFTLTISSLQSEDFAVYYCQQYDNWPLMHTFGQGTKLEIK | – | binds
